Test results as given in patent US20180155451A1 (published 2018).

The binders below were run against T1, FcγRIa extracellular domain with C-terminal His tag (human, UniProt P12314 16-292) (assay: SPR (Biacore), relative FcγRIa binding, GpH7-B3/GpL16-k0 (HoCon Ab) = 100).
T1 construct: extracellular domain; soluble analyte in Biacore; also called FcgRI; CD64
T1 sequence (P12314 16-292): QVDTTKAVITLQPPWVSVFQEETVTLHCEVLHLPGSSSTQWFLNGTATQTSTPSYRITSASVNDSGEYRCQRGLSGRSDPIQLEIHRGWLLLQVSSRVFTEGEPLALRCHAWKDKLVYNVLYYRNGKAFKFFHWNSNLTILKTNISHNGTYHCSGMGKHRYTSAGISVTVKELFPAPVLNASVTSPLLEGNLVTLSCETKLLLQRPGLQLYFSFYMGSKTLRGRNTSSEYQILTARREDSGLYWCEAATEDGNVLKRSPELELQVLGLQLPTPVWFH

Binder | Ho/Con_1a
GpH7-B3 variant K334_02A/GpL16-k0 (antibody, human IgG1, kappa, homodimerized antibody, mutation in both H chains; also called K334_02A Ho Ab) heavy: not shown light: DIVMTQSPLSLPVTPGEPASISCQASESLVHSNRNTYLHWYLQKPGQSPQLLIYKVSNRFSGVPDRFSGSGSGTDFTLKISRVEAEDVGVYYCSQNTHVPPTFGQGTKVEIERTVAAPSVFIFPPSDEQLKSGTASVVCLLNNFYPREAKVQWKVDNALQSGNSQESVTEQDSKDSTYSLSSTLTLSKADYEKHKVYACEVTHQGLSSPVTKSFNRGEC | 106 % of control
GpH7-B3 variant P271_08L/GpL16-k0 (antibody, human IgG1, kappa, homodimerized antibody, mutation in both H chains; also called P271_08L Ho Ab) heavy: not shown light: DIVMTQSPLSLPVTPGEPASISCQASESLVHSNRNTYLHWYLQKPGQSPQLLIYKVSNRFSGVPDRFSGSGSGTDFTLKISRVEAEDVGVYYCSQNTHVPPTFGQGTKVEIERTVAAPSVFIFPPSDEQLKSGTASVVCLLNNFYPREAKVQWKVDNALQSGNSQESVTEQDSKDSTYSLSSTLTLSKADYEKHKVYACEVTHQGLSSPVTKSFNRGEC | 103 % of control
GpH7-B3 variant K334_19Q/GpL16-k0 (antibody, human IgG1, kappa, homodimerized antibody, mutation in both H chains; also called K334_19Q Ho Ab) heavy: not shown light: DIVMTQSPLSLPVTPGEPASISCQASESLVHSNRNTYLHWYLQKPGQSPQLLIYKVSNRFSGVPDRFSGSGSGTDFTLKISRVEAEDVGVYYCSQNTHVPPTFGQGTKVEIERTVAAPSVFIFPPSDEQLKSGTASVVCLLNNFYPREAKVQWKVDNALQSGNSQESVTEQDSKDSTYSLSSTLTLSKADYEKHKVYACEVTHQGLSSPVTKSFNRGEC | 106 % of control
GpH7-B3 variant K334_18N/GpL16-k0 (antibody, human IgG1, kappa, homodimerized antibody, mutation in both H chains; also called K334_18N Ho Ab) heavy: not shown light: DIVMTQSPLSLPVTPGEPASISCQASESLVHSNRNTYLHWYLQKPGQSPQLLIYKVSNRFSGVPDRFSGSGSGTDFTLKISRVEAEDVGVYYCSQNTHVPPTFGQGTKVEIERTVAAPSVFIFPPSDEQLKSGTASVVCLLNNFYPREAKVQWKVDNALQSGNSQESVTEQDSKDSTYSLSSTLTLSKADYEKHKVYACEVTHQGLSSPVTKSFNRGEC | 108 % of control
GpH7-B3 variant K334_04F/GpL16-k0 (antibody, human IgG1, kappa, homodimerized antibody, mutation in both H chains; also called K334_04F Ho Ab) heavy: not shown light: DIVMTQSPLSLPVTPGEPASISCQASESLVHSNRNTYLHWYLQKPGQSPQLLIYKVSNRFSGVPDRFSGSGSGTDFTLKISRVEAEDVGVYYCSQNTHVPPTFGQGTKVEIERTVAAPSVFIFPPSDEQLKSGTASVVCLLNNFYPREAKVQWKVDNALQSGNSQESVTEQDSKDSTYSLSSTLTLSKADYEKHKVYACEVTHQGLSSPVTKSFNRGEC | 106 % of control
GpH7-B3 variant K334_09D/GpL16-k0 (antibody, human IgG1, kappa, homodimerized antibody, mutation in both H chains; also called K334_09D Ho Ab) heavy: not shown light: DIVMTQSPLSLPVTPGEPASISCQASESLVHSNRNTYLHWYLQKPGQSPQLLIYKVSNRFSGVPDRFSGSGSGTDFTLKISRVEAEDVGVYYCSQNTHVPPTFGQGTKVEIERTVAAPSVFIFPPSDEQLKSGTASVVCLLNNFYPREAKVQWKVDNALQSGNSQESVTEQDSKDSTYSLSSTLTLSKADYEKHKVYACEVTHQGLSSPVTKSFNRGEC | 108 % of control
GpH7-B3 variant K334_16H/GpL16-k0 (antibody, human IgG1, kappa, homodimerized antibody, mutation in both H chains; also called K334_16H Ho Ab) heavy: not shown light: DIVMTQSPLSLPVTPGEPASISCQASESLVHSNRNTYLHWYLQKPGQSPQLLIYKVSNRFSGVPDRFSGSGSGTDFTLKISRVEAEDVGVYYCSQNTHVPPTFGQGTKVEIERTVAAPSVFIFPPSDEQLKSGTASVVCLLNNFYPREAKVQWKVDNALQSGNSQESVTEQDSKDSTYSLSSTLTLSKADYEKHKVYACEVTHQGLSSPVTKSFNRGEC | 106 % of control
GpH7-B3 variant P271_01G/GpL16-k0 (antibody, human IgG1, kappa, homodimerized antibody, mutation in both H chains; also called P271_01G Ho Ab) heavy: not shown light: DIVMTQSPLSLPVTPGEPASISCQASESLVHSNRNTYLHWYLQKPGQSPQLLIYKVSNRFSGVPDRFSGSGSGTDFTLKISRVEAEDVGVYYCSQNTHVPPTFGQGTKVEIERTVAAPSVFIFPPSDEQLKSGTASVVCLLNNFYPREAKVQWKVDNALQSGNSQESVTEQDSKDSTYSLSSTLTLSKADYEKHKVYACEVTHQGLSSPVTKSFNRGEC | 106 % of control
GpH7-B3 variant K334_05P/GpL16-k0 (antibody, human IgG1, kappa, homodimerized antibody, mutation in both H chains; also called K334_05P Ho Ab) heavy: not shown light: DIVMTQSPLSLPVTPGEPASISCQASESLVHSNRNTYLHWYLQKPGQSPQLLIYKVSNRFSGVPDRFSGSGSGTDFTLKISRVEAEDVGVYYCSQNTHVPPTFGQGTKVEIERTVAAPSVFIFPPSDEQLKSGTASVVCLLNNFYPREAKVQWKVDNALQSGNSQESVTEQDSKDSTYSLSSTLTLSKADYEKHKVYACEVTHQGLSSPVTKSFNRGEC | 106 % of control
GpH7-B3 variant K334_14T/GpL16-k0 (antibody, human IgG1, kappa, homodimerized antibody, mutation in both H chains; also called K334_14T Ho Ab) heavy: not shown light: DIVMTQSPLSLPVTPGEPASISCQASESLVHSNRNTYLHWYLQKPGQSPQLLIYKVSNRFSGVPDRFSGSGSGTDFTLKISRVEAEDVGVYYCSQNTHVPPTFGQGTKVEIERTVAAPSVFIFPPSDEQLKSGTASVVCLLNNFYPREAKVQWKVDNALQSGNSQESVTEQDSKDSTYSLSSTLTLSKADYEKHKVYACEVTHQGLSSPVTKSFNRGEC | 106 % of control

Results, then the binder that gave them:

Ho/Con_1a | Binder
107 % of control | GpH7-B3 variant K334_07I/GpL16-k0 (antibody, human IgG1, kappa, homodimerized antibody, mutation in both H chains; also called K334_07I Ho Ab) heavy: not shown light: DIVMTQSPLSLPVTPGEPASISCQASESLVHSNRNTYLHWYLQKPGQSPQLLIYKVSNRFSGVPDRFSGSGSGTDFTLKISRVEAEDVGVYYCSQNTHVPPTFGQGTKVEIERTVAAPSVFIFPPSDEQLKSGTASVVCLLNNFYPREAKVQWKVDNALQSGNSQESVTEQDSKDSTYSLSSTLTLSKADYEKHKVYACEVTHQGLSSPVTKSFNRGEC
108 % of control | GpH7-B3 variant K334_08L/GpL16-k0 (antibody, human IgG1, kappa, homodimerized antibody, mutation in both H chains; also called K334_08L Ho Ab) heavy: not shown light: DIVMTQSPLSLPVTPGEPASISCQASESLVHSNRNTYLHWYLQKPGQSPQLLIYKVSNRFSGVPDRFSGSGSGTDFTLKISRVEAEDVGVYYCSQNTHVPPTFGQGTKVEIERTVAAPSVFIFPPSDEQLKSGTASVVCLLNNFYPREAKVQWKVDNALQSGNSQESVTEQDSKDSTYSLSSTLTLSKADYEKHKVYACEVTHQGLSSPVTKSFNRGEC
105 % of control | GpH7-B3 variant K334_03V/GpL16-k0 (antibody, human IgG1, kappa, homodimerized antibody, mutation in both H chains; also called K334_03V Ho Ab) heavy: not shown light: DIVMTQSPLSLPVTPGEPASISCQASESLVHSNRNTYLHWYLQKPGQSPQLLIYKVSNRFSGVPDRFSGSGSGTDFTLKISRVEAEDVGVYYCSQNTHVPPTFGQGTKVEIERTVAAPSVFIFPPSDEQLKSGTASVVCLLNNFYPREAKVQWKVDNALQSGNSQESVTEQDSKDSTYSLSSTLTLSKADYEKHKVYACEVTHQGLSSPVTKSFNRGEC
104 % of control | GpH7-B3 variant L328_15Y/GpL16-k0 (antibody, human IgG1, kappa, homodimerized antibody, mutation in both H chains; also called L328_15Y Ho Ab) heavy: not shown light: DIVMTQSPLSLPVTPGEPASISCQASESLVHSNRNTYLHWYLQKPGQSPQLLIYKVSNRFSGVPDRFSGSGSGTDFTLKISRVEAEDVGVYYCSQNTHVPPTFGQGTKVEIERTVAAPSVFIFPPSDEQLKSGTASVVCLLNNFYPREAKVQWKVDNALQSGNSQESVTEQDSKDSTYSLSSTLTLSKADYEKHKVYACEVTHQGLSSPVTKSFNRGEC
106 % of control | GpH7-B3 variant K334_13S/GpL16-k0 (antibody, human IgG1, kappa, homodimerized antibody, mutation in both H chains; also called K334_13S Ho Ab) heavy: not shown light: DIVMTQSPLSLPVTPGEPASISCQASESLVHSNRNTYLHWYLQKPGQSPQLLIYKVSNRFSGVPDRFSGSGSGTDFTLKISRVEAEDVGVYYCSQNTHVPPTFGQGTKVEIERTVAAPSVFIFPPSDEQLKSGTASVVCLLNNFYPREAKVQWKVDNALQSGNSQESVTEQDSKDSTYSLSSTLTLSKADYEKHKVYACEVTHQGLSSPVTKSFNRGEC
107 % of control | GpH7-B3 variant K334_15Y/GpL16-k0 (antibody, human IgG1, kappa, homodimerized antibody, mutation in both H chains; also called K334_15Y Ho Ab) heavy: not shown light: DIVMTQSPLSLPVTPGEPASISCQASESLVHSNRNTYLHWYLQKPGQSPQLLIYKVSNRFSGVPDRFSGSGSGTDFTLKISRVEAEDVGVYYCSQNTHVPPTFGQGTKVEIERTVAAPSVFIFPPSDEQLKSGTASVVCLLNNFYPREAKVQWKVDNALQSGNSQESVTEQDSKDSTYSLSSTLTLSKADYEKHKVYACEVTHQGLSSPVTKSFNRGEC
